Assay results reported in article PMC8957996.
One block for each substance: values may come before it.

Columns and labels:
[1] = molecular target: [Val^1]gA; test: single-channel electrophysiology (planar lipid bilayer); DOPS/n-decane bilayer, 0.1 M Na+, pH 7 (HEPES); bilayer punch method, 25 ± 1 °C, ±200 mV
[2] = molecular target: [Val^1]gA; test: single-channel electrophysiology (planar lipid bilayer); DOPS/n-decane bilayer, 0.1 M Na+, pH 4 (Gly-Gly); bilayer punch method, 25 ± 1 °C, ±200 mV
[3] = molecular target: [Val^1]gA; test: single-channel electrophysiology (planar lipid bilayer); DOPS/n-decane bilayer, 0.1 M Na+, pH 5 (Gly-Gly); bilayer punch method, 25 ± 1 °C, ±200 mV
[4] = molecular target: [Val^1]gA; test: single-channel electrophysiology (planar lipid bilayer); DOPS/n-decane bilayer, 0.1 M Na+, pH 6 (Na2HPO4); bilayer punch method, 25 ± 1 °C, ±200 mV
[5] = molecular target: [Val^1]gA; test: single-channel electrophysiology (planar lipid bilayer); DOPS/n-decane bilayer, 0.1 M Na+, pH 7 (Na2HPO4); bilayer punch method, 25 ± 1 °C, ±200 mV
[6] = molecular target: [Val^1]gA; test: single-channel electrophysiology (planar lipid bilayer); DOPE:DOPC (4:1)/n-decane bilayer, 0.1 M Na+, pH 0; bilayer punch method, 25 ± 1 °C, ±200 mV
[7] = molecular target: [Val^1]gA; test: single-channel electrophysiology (planar lipid bilayer); DOPE:DOPC (4:1)/n-decane bilayer, 0.1 M Na+, pH 1; bilayer punch method, 25 ± 1 °C, ±200 mV
[8] = molecular target: [Val^1]gA; test: single-channel electrophysiology (planar lipid bilayer); DOPS/n-decane bilayer, 0.1 M Na+, pH 3 (Gly-Gly); bilayer punch method, 25 ± 1 °C, ±200 mV
[9] = molecular target: [Val^1]gA; test: single-channel electrophysiology (planar lipid bilayer); DOPE:DOPC (4:1)/n-decane bilayer, 0.1 M Na+, pH 3 (Gly-Gly); bilayer punch method, 25 ± 1 °C, ±200 mV
[10] = molecular target: [Val^1]gA; test: single-channel electrophysiology (planar lipid bilayer); DOPE:DOPC (4:1)/n-decane bilayer, 0.1 M Na+, pH 5 (Gly-Gly); bilayer punch method, 25 ± 1 °C, ±200 mV
[11] = molecular target: [Val^1]gA; test: single-channel electrophysiology (planar lipid bilayer); DOPE:DOPC (4:1)/n-decane bilayer, 0.1 M Na+, pH 9 (Na2HPO4); bilayer punch method, 25 ± 1 °C, ±200 mV
[12] = molecular target: [Val^1]gA; test: single-channel electrophysiology (planar lipid bilayer); DOPS:DOPC (1:2)/n-decane bilayer, 0.1 M Na+, pH 7 (HEPES); bilayer punch method, 25 ± 1 °C, ±200 mV
[13] = molecular target: [Val^1]gA; test: single-channel electrophysiology (planar lipid bilayer); DOPS:DOPE (1:2)/n-decane bilayer, 0.1 M Na+, pH 7 (HEPES); bilayer punch method, 25 ± 1 °C, ±200 mV
[14] = molecular target: [Val^1]gA; test: single-channel electrophysiology (planar lipid bilayer); DOPC/n-decane bilayer, 1.0 M NaCl, unbuffered (pH 6-7); bilayer punch method, 25 ± 1 °C, 200 mV, 100 Hz
[15] = molecular target: [Val^1]gA; test: single-channel electrophysiology (planar lipid bilayer); DOPE:DOPC (4:1)/n-decane bilayer, 0.1 M Na+, pH 7.8 (Na2HPO4); bilayer punch method, 25 ± 1 °C, ±200 mV
[16] = molecular target: [Val^1]gA; test: single-channel electrophysiology (planar lipid bilayer); DOPE:DOPC (1:1)/n-decane bilayer, 1.0 M NaCl, unbuffered (pH 6-7); bilayer punch method, 25 ± 1 °C, 200 mV, 100 Hz
[17] = molecular target: [Val^1]gA; test: single-channel electrophysiology (planar lipid bilayer); DOPE:DOPC (1:3)/n-decane bilayer, 1.0 M NaCl, unbuffered (pH 6-7); bilayer punch method, 25 ± 1 °C, 200 mV, 100 Hz
[18] = molecular target: [Val^1]gA; test: single-channel electrophysiology (planar lipid bilayer); DOPE:DOPC (3:1)/n-decane bilayer, 1.0 M NaCl, unbuffered (pH 6-7); bilayer punch method, 25 ± 1 °C, 200 mV, 100 Hz
[19] = molecular target: [Val^1]gA; test: single-channel electrophysiology (planar lipid bilayer); DOPS/n-decane bilayer, 0.1 M Na+, pH 8 (Na2HPO4); bilayer punch method, 25 ± 1 °C, ±200 mV; monomers in opposing monolayers dimerise to the conducting channel
[20] = molecular target: [Ala^1]gA; test: single-channel electrophysiology (planar lipid bilayer); DOPC/n-decane bilayer, AgA(15) and gA^-(13) together, 1 M NaCl, pH 7, 200 mV, 500 Hz; 25 ± 1 °C
[21] = molecular target: [Ala^1]gA; test: single-channel electrophysiology (planar lipid bilayer); DoPC (ether phospholipid)/n-decane bilayer, AgA(15) and gA^-(13) together, 1 M NaCl, pH 7 (10 mM HEPES), 200 mV, 500 Hz; 25 ± 1 °C
[22] = molecular target: [Ala^1]gA; test: single-channel electrophysiology (planar lipid bilayer); DLoPC/n-decane bilayer (25 uM butylated hydroxytoluene in the bilayer-forming solution), AgA(15) and gA^-(13) together, 1 M NaCl, pH 7 (10 mM HEPES), 200 mV, 500 Hz; 25 ± 1 °C
[23] = molecular target: des-(Val^1-Gly^2)gA^–; test: single-channel electrophysiology (planar lipid bilayer); DOPC/n-decane bilayer, AgA(15) and gA^-(13) together, 1 M NaCl, pH 7, 200 mV, 500 Hz; 25 ± 1 °C
[24] = molecular target: des-(Val^1-Gly^2)gA^–; test: single-channel electrophysiology (planar lipid bilayer); DoPC (ether phospholipid)/n-decane bilayer, AgA(15) and gA^-(13) together, 1 M NaCl, pH 7 (10 mM HEPES), 200 mV, 500 Hz; 25 ± 1 °C
[25] = molecular target: des-(Val^1-Gly^2)gA^–; test: single-channel electrophysiology (planar lipid bilayer); DLoPC/n-decane bilayer (25 uM butylated hydroxytoluene in the bilayer-forming solution), AgA(15) and gA^-(13) together, 1 M NaCl, pH 7 (10 mM HEPES), 200 mV, 500 Hz; 25 ± 1 °C

channel lifetime tau (= 1/k-1, dissociation of the dimer) [1]: 1340 ms
channel lifetime tau (= 1/k-1, dissociation of the dimer) [2]: 270 ms
channel lifetime tau (= 1/k-1, dissociation of the dimer) [3]: 800 ms
channel lifetime tau (= 1/k-1, dissociation of the dimer) [4]: 920 ms
channel lifetime tau (= 1/k-1, dissociation of the dimer) [5]: 1320 ms
channel lifetime tau (= 1/k-1, dissociation of the dimer) [6]: 220 ms
channel lifetime tau (single experiment) [6]: 235 ms
channel lifetime tau (= 1/k-1, dissociation of the dimer) [7]: 90 ms
channel lifetime tau (= 1/k-1, dissociation of the dimer) [8]: 170 ms
fold decrease of k1 (association rate constant) against pH 7 [8]: 100 to 400 fold
fold decrease of the dimerization constant KD (= k1·τ) against pH 7 [8]: 1000 fold
channel lifetime tau (= 1/k-1, dissociation of the dimer) [9]: 70 ms
channel lifetime tau (= 1/k-1, dissociation of the dimer) [10]: 80 ms
channel lifetime tau (single experiment) [10]: 65 ms
channel lifetime tau (= 1/k-1, dissociation of the dimer) [11]: 150 ms
channel lifetime tau (single experiment) [11]: 162 ms
channel lifetime tau (= 1/k-1, dissociation of the dimer) [12]: 470 ms
channel lifetime tau (single experiment) [12]: 486 ms
channel lifetime tau (= 1/k-1, dissociation of the dimer) [13]: 140 ms
channel lifetime tau (single experiment) [13]: 143 ms
channel lifetime tau (= 1/k-1, dissociation of the dimer) [14]: 550 ms
channel lifetime tau (single experiment) [14]: 563 ms
channel lifetime tau (= 1/k-1, dissociation of the dimer) [15]: 100 ms
channel lifetime tau (= 1/k-1, dissociation of the dimer) [16]: 240 ms
channel lifetime tau (single experiment) [16]: 229 ms
channel lifetime tau (= 1/k-1, dissociation of the dimer) [17]: 350 ms
channel lifetime tau (single experiment) [17]: 304 ms
channel lifetime tau (= 1/k-1, dissociation of the dimer) [18]: 260 ms
fold decrease of k1 (association rate constant) against DOPC bilayers [18]: 10 fold
fold decrease of the dimerization constant KD (= k1·τ) against DOPC bilayers [18]: 20 fold
channel lifetime tau (= 1/k-1, dissociation of the dimer) [19]: 1380 ms
Substance: [Val^1]gA (peptide)

channel lifetime tau (= 1/k-1, dissociation of the dimer) [20]: 170 ms
channel lifetime tau (= 1/k-1, dissociation of the dimer) [21]: 296 ms
channel lifetime tau (= 1/k-1, dissociation of the dimer) [22]: 823 ms
Substance: [Ala^1]gA (peptide)

channel lifetime tau (= 1/k-1, dissociation of the dimer) [23]: 13.8 ms
channel lifetime tau (= 1/k-1, dissociation of the dimer) [24]: 29 ms
channel lifetime tau (= 1/k-1, dissociation of the dimer) [25]: 61 ms
Substance: des-(Val^1-Gly^2)gA^– (peptide)
